Measured values from US20220281973A1 (TRUEBINDING, published 2022).

T1: hLRIG1 Peptide 70 (human)
T1 construct: 20 amino acid peptide of the LRIG1 peptide library
T1 peptide: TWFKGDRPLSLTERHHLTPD

T2: hLRIG1 Peptide 71 (human)
T2 construct: 20 amino acid peptide of the LRIG1 peptide library
T2 peptide: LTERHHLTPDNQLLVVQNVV

T3: human LRIG1 extracellular domain fused to a linker-spaced 6-histidine tag, LRIG1-ECD-His (R&D systems, … (human, UniProt Q96JA1 35-794))
T3 construct: Bought protein; also called human LRIG1-His; hLRIG1-His; not shown: linker-spaced 6-histidine tag
T3 sequence: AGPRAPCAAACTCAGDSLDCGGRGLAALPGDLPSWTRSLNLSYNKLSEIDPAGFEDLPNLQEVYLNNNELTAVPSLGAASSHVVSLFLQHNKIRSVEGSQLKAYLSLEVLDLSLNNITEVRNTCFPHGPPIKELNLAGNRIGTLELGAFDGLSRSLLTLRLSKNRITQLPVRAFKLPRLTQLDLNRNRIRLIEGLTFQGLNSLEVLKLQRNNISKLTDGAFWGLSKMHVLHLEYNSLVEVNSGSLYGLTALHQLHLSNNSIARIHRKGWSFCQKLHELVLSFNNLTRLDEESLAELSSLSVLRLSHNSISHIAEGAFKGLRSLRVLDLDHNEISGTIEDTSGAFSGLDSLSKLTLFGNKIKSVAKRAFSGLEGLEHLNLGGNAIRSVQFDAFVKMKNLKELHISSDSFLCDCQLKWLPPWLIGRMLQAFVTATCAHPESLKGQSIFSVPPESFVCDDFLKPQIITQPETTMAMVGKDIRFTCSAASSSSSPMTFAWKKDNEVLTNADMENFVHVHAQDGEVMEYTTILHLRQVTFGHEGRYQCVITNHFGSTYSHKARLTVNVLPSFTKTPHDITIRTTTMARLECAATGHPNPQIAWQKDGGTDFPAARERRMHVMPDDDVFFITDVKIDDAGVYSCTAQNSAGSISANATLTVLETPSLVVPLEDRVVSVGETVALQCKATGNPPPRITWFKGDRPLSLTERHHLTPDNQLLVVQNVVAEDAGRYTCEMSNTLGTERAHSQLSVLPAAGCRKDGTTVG

T4: hLRIG1 Peptide 69 (human)
T4 construct: 20 amino acid peptide of the LRIG1 peptide library
T4 peptide: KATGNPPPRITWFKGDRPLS


Assays:
[1] = target: T1, hLRIG1 Peptide 70; test: peptide ELISA of Example 2, as told in Example 3
Description: (§1) To identify the epitopes to which LRIG1 antibodies with and without VISTA-LRIG1 blocking activity bound, a library of 20 amino acid peptides representing portions of LRIG1 was produced, and the ability to bind LRIG1 antibodies was evaluated by ELISA. At least 2 ug/ml of hLRIG1 peptide in 50 μl of PBS or 0.1 ug/ml of full-length human LRIG1 protein (R&D Systems) in 100 μl of PBS was added to the wells of a 96-well ELISA plate (Thermo Fisher, 44-2404-21). After incubating the plate at 4° C. overnight, the plate was washed three times with 300 μl of PBST per well. The plate was then blocked for an hour with 200 μl of 2% BSA in PBST per well at room temperature with gentle rocking. Thereafter, the 2% BSA in PBST was removed and 100 μl of 0.1 ug/ml of antibody in 2% BSA in PBST was added to the wells. The plate was incubated for an hour at room temperature with gentle rocking and then washed three times with 300 μl of PBST per well. Afterwards, 100 μl of anti-mouse IgG-HRP (1:4000) (Jackson ImmunoResearch) or anti-rat IgG HRP (1:4000) (Jackson ImmunoResearch) was added to the wells. The plate was incubated for 30 minutes at room temperature with gentle rocking and then washed three times with 300 μl of PBST per well. 100 μl of TMB substrate (Fisher Scientific, 34029) was then added to each well. The reaction was stopped with 50 μl of 1 M HCl (VWR) per well. The plate was read using a plate reader (Molecular Devices) at absorbance of 450 nm, and signal greater than 0.25 OD was considered evidence of peptide binding.

[2] = target: T2, hLRIG1 Peptide 71; test: peptide ELISA of Example 2, as told in Example 3
Description: as §1

[3] = target: T3, human LRIG1 extracellular domain fused …; test: LRIG1 ECD ELISA-positive hybridoma antibodies tested in blocking ELISA on plate-bound LRIG1-ECD-His
Description: Positively scoring wells were evaluated for the ability to block association of LRIG1 and VISTA. To identify LRIG1-targeted antibodies with the ability to block the interaction of LRIG1 and VISTA, purified LRIG1 and VISTA proteins were incubated in the presence of LRIG1-immunization hybridoma supernatants described above, or without antibody, and protein interaction was evaluated by ELISA. Purified human LRIG1 extracellular domain fused to a HIS tag (R&D Systems) was diluted in phosphate buffered saline (PBS) (Corning) to a concentration of 3 μg/ml and 100 μl was added to each well of a 96-well ELISA plate (Thermo Fisher, 44-2404-21). After incubating the plate at 4° C. overnight, the plate was washed three times with 300 μl of PBS with 0.05% TWEEN (VWR) (PBST) per well. The plate was then blocked for an hour with 200 μl of 2% bovine serum albumin (BSA) (Sigma) in PBST per well at room temperature with gentle rocking. Thereafter, the 2% BSA in PBST was removed and 50 μl of hybridoma supernatant diluted to 3.3 ug/mL was added to the wells. The plate was incubated for 10 minutes at room temperature with gentle rocking. Afterwards, 100 ul of 50 nM oligomerized VISTA in 100 ul PBS buffer was added per well. VISTA oligomerization was performed by Klickmer formation. Briefly, 5 nM Klickmer (Immudex) was incubated with 200 nM hVISTA-Fc-Avi-Biotin in PBS and incubated for one hour. The plate was incubated for an hour at room temperature with gentle rocking. Thereafter, the plate was washed three times with 300 μl of PBST per well, and 100 μl of avidin-HRP (1:1000) (Jackson ImmunoResearch) was then added to each well and the plate was incubated at room temperature for 30 minutes with gentle rocking. Thereafter, the plate was washed three times with 300 μl of PBST per well. 100 μl of TMB substrate (Fisher Scientific, 34029) was then added to each well. The reaction was stopped with 50 μl of 1 M HCl (VWR) per well. The plate was read using a spectrophotometer (Molecular Devices) at absorbance of 450 nm. Percent blockade of LRIG1-VISTA interaction was calculated as the fraction of signal obtained in each experimental samples of the no antibody sample less background signal.

[4] = target: T4, hLRIG1 Peptide 69; test: peptide ELISA of Example 2, as told in Example 3
Description: as §1

| binding result [1] | binding result [2] | binding result [3] | binding result [4] | Binder |
| --- | --- | --- | --- | --- |
| binds | binds | binds | – | 802.2B7.2F9 (antibody, V domains shown, Mouse hybridoma monoclonal) VH: EVQLVESGGGLAKPGGSLKLSCAASGFTFSASAMSWVRQTPEKRLEWVATISDGGSYTYYPDNVKGRFTISRDNAKSNLYLQMSHLKSEDTAMYYCAGGVSTVINFDYWGQGTTLTVSS VL: DVVMTQTPLSLPVSLGDQVSISCRSSQSIVHSNGNTYLEWYLQKPGQSPKLLIYKVSNRFSGVPDRFSGSGSGTDFTLKISRVEAEDLGVYYCFQGSHVPLTFGGGTKLELK |
| binds | binds | binds | – | 802.5G6.2B8 (antibody, V domains shown, Mouse hybridoma monoclonal) VH: EVHLVESGGGLMKPGGSLKLSCAASGFTFSSYAMSWVRQTPEKRLEWVATISDGGSYTYYPDNVKGRFTISRDNAKNNLYLQMSRLKSEDTAMYYCSRAGSTVVNFGYWGQGTTLTVSS VL: DIVMTQTPLSLPVSLGDQASISCRSSQNIAHSNGNTYLEWYLQKPGQSPQLLIYKVSNRFSGVPDRFSGSGSGTDFTLKISRVEAEDLGVYYCFQGSHVPLTFGAGTKLELK |
| – | – | binds | binds | 802.5G6.2B11 (antibody, V domains shown, Mouse hybridoma monoclonal) VH: EVQLQQSGAELVRPGASVKLSCTASGFNIKDDYLHWVKQRPEQGLEWIGWIDPEKGDTECASKFQGKATITVDTSSNTAYLQLSSLTSEDTAVYFCTTGSTVWGQGTTLTVSS VL: not shown |
